In the assay the target is T1, natural Bla g 2 (Blattella germanica, UniProt P54958).
T1 construct: Glycosylated natural allergen; also called nBla g 2; natural allergen
Nature of the assay: ELISA; two-site dose-response: mAb 7C11 or 4C3 as capture antibody, allergen titrated, detection with biotinylated mAb 4C3 (21 nM) or 7C11 (4 nM), respectively, or polyclonal antibody (53 nM). Conditions: both partners purified.

T1 sequence (P54958 whole entry, looked up): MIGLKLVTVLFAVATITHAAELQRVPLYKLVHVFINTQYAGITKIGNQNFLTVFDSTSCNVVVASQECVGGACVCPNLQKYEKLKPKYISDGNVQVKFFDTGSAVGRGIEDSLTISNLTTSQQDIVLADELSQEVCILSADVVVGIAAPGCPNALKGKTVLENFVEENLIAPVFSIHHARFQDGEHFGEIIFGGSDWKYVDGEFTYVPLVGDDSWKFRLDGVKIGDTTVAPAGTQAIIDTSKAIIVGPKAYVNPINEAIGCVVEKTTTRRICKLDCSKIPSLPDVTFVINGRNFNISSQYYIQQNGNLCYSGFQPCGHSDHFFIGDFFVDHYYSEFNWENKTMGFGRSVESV

B1: monoclonal antibody 4C3 (anti-Bla g 2) (antibody, V domains shown)
VH: EVQLVESGGGLVQPGGSLKLSCAASGFTFSSFAMSWGRQTPDKRLELVATINSNGASTYYPDTVKGRFTISRDNAKNTLFLQMSSLKSEDTAMYYCTRDPAGRAWFAYWGQGTLVTVSA
VL: QIVLTQSPSSMYASLGERVTITCKASQDINNYLSWFQQKPGKSPKTLIYRADRLVDGVPSRVSGSGSGQDYSLTISSLEYEDLGIYYCLQYDELPYTFGGGTKLEIK
notes: the Fab of mAb 4C3 stands in PDB 3liz (complex with Bla g 2), heavy chain; the Fab of mAb 4C3 stands in PDB 3liz (complex with Bla g 2), light chain; Whole mAb in the assays; the PDB entry holds only the Fab fragment; also called mAb 4C3; biotinylated mAb 4C3
B1: the binding result is “binds”.

B2: monoclonal antibody 7C11 (anti-Bla g 2) (antibody, V domains shown)
VH: EIQLQQSGAELVKPGASVKLSCTASGFNIKDTYIHWVKQRPEQGLEWIGRIDPANGNTRYGPKFLGKATITADTSSNTAYLHLNSLTSEDTAVYFCARWVRQMDYWGQGTSVTVSS
VL: DIVMTQSHKFMSTSVGDRVSITCKASQIVSTAVAWYQQKPGQSPKLLIYSASYRYTGVPDRFTGSGSGTDFTFTISSVQAEDLAVYYCQQHYNSPQTFGGGTKLEIK
notes: the Fab' of mAb 7C11 stands in PDB 2nr6 (complex with Bla g 2), heavy chain; the Fab' of mAb 7C11 stands in PDB 2nr6 (complex with Bla g 2), light chain; Whole mAb in the assays; the PDB entry holds only the Fab' fragment; also called mAb 7C11; biotinylated mAb 7C11
In the case of B2, the binding result is “binds”.

The values above are taken from publication PMC3137622, “Mechanisms of Allergen-Antibody Interaction of Cockroach Allergen Bla g 2 with Monoclonal Antibodies That Inhibit IgE Antibody Binding” (PLoS ONE, 2011).
